# Where two headings read alike, the source gives them in different places.
# T1: RelA (Escherichia coli, UniProt P0AG20)
# T1 sequence (P0AG20 1-744): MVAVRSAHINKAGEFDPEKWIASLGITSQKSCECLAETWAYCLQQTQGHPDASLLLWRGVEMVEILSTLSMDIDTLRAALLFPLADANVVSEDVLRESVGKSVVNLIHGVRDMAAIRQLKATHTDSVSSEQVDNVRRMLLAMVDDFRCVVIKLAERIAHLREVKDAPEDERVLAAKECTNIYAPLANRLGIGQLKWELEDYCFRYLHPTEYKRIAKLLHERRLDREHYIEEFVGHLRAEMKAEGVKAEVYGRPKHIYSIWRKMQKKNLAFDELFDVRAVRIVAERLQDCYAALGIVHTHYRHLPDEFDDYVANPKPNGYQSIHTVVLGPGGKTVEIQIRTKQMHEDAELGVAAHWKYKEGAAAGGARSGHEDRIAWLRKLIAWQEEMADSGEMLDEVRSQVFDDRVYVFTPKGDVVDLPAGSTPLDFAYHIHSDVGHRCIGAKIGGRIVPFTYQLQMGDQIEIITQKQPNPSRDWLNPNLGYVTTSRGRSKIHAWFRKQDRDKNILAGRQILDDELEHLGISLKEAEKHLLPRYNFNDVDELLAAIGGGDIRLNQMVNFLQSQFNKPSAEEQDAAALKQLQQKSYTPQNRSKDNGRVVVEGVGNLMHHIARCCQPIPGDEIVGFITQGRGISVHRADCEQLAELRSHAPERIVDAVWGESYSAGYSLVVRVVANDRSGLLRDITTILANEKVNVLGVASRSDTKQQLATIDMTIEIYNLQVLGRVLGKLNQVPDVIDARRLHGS
# T2: ^strepLpxA (E. coli, UniProt P0A722 1-262)
# T2 sequence: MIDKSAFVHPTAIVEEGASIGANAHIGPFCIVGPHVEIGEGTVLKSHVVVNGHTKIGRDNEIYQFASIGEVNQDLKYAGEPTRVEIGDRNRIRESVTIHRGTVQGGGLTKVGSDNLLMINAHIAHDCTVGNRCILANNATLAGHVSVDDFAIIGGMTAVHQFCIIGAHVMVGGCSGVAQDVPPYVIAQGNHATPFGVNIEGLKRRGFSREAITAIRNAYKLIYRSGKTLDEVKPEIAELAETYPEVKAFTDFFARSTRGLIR
# Experiments:
# [1] = biological target: ObgE (Escherichia coli, UniProt P42641); test: DRaCALA with […]-ppGpp in overexpression lysate; assay type: cell-based
# Sequence of ObgE (P42641 whole entry): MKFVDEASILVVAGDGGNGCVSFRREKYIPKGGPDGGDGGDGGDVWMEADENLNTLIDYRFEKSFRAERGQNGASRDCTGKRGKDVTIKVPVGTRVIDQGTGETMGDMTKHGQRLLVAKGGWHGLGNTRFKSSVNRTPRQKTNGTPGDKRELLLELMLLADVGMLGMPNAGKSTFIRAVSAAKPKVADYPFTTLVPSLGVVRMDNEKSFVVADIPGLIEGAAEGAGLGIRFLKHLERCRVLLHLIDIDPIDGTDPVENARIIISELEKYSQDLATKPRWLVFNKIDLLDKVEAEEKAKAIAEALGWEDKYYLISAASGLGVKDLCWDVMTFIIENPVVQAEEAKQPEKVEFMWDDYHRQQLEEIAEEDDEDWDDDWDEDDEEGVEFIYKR
# [2] = biological target: SpeF (Escherichia coli, UniProt P24169); test: DRaCALA with […]-ppGpp in overexpression lysate; assay type: cell-based
# Sequence of SpeF (P24169 whole entry): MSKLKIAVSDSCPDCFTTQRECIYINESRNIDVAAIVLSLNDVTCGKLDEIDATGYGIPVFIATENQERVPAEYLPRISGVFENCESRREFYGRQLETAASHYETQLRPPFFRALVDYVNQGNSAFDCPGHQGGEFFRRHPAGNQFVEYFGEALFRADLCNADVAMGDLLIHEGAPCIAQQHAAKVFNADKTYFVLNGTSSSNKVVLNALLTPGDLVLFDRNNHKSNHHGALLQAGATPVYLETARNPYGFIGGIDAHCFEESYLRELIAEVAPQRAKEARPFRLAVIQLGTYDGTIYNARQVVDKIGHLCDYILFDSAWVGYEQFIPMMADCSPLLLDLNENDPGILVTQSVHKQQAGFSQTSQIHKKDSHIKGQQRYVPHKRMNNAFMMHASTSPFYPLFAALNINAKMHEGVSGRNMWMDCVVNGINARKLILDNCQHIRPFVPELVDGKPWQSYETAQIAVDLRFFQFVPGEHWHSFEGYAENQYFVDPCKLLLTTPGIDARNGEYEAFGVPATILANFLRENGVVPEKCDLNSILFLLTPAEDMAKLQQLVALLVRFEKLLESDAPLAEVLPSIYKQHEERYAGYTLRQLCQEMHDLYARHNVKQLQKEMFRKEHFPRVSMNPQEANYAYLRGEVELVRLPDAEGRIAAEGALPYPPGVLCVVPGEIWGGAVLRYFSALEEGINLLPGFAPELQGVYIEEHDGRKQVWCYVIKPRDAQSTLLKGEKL
# [3] = biological target: T1, RelA; test: DRaCALA with […]-ppGpp in overexpression lysate; assay type: cell-based
# [4] = substrate: CC(=O)N[C@H]1[C@@H](OP(=O)(O)OP(=O)(O)OC[C@H]2O[C@@H](n3ccc(=O)[nH]c3=O)[C@H](O)[C@@H]2O)O[C@H](CO)[C@@H](O)[C@@H]1O; test: purified protein
# [5] = biological target: T2, ^strepLpxA; test: MST
# [6] = biological target: T2, ^strepLpxA; test: MST; remark: listed apart in the source
binding result [5],binding result [6],Molecule,further results
,,Nc1nc2c(ncn2[C@@H]2O[C@H](COP(=O)(O)OP(=O)(O)O)[C@@H](OP(=O)(O)OP(=O)(O)O)[C@H]2O)c(=O)[nH]1 [ppGpp],% relative to RelA [1]: 86 ± 12 % relative to RelA; % relative to RelA [2]: 73 ± 12 % relative to RelA; % (reference binding) [3]: 100 % (reference binding)
,,LpxA (Escherichia coli K-12) (protein) MIDKSAFVHPTAIVEEGASIGANAHIGPFCIVGPHVEIGEGTVLKSHVVVNGHTKIGRDNEIYQFASIGEVNQDLKYAGEPTRVEIGDRNRIRESVTIHRGTVQGGGLTKVGSDNLLMINAHIAHDCTVGNRCILANNATLAGHVSVDDFAIIGGMTAVHQFCIIGAHVMVGGCSGVAQDVPPYVIAQGNHATPFGVNIEGLKRRGFSREAITAIRNAYKLIYRSGKTLDEVKPEIAELAETYPEVKAFTDFFARSTRGLIR,Km [4]: 494 µM
binds,,"^HisRnhB (enzyme, E. coli, UniProt P10442 1-198, looked up, fluorescently labeled with the His-Tag Labeling Kit RED-tris-NTA) MIEFVYPHTQLVAGVDEVGRGPLVGAVVTAAVILDPARPIAGLNDSKKLSEKRRLALYEEIKEKALSWSLGRAEPHEIDELNILHATMLAMQRAVAGLHIAPEYVLIDGNRCPKLPMPAMAVVKGDSRVPEISAASILAKVTRDAEMAALDIVFPQYGFAQHKGYPTAFHLEKLAEHGATEHHRRSFGPVKRALGLAS",
,binds,"^His-SUMORnhB (enzyme, E. coli, UniProt P10442 1-198, looked up, fluorescently labeled with the His-Tag Labeling Kit RED-tris-NTA) MIEFVYPHTQLVAGVDEVGRGPLVGAVVTAAVILDPARPIAGLNDSKKLSEKRRLALYEEIKEKALSWSLGRAEPHEIDELNILHATMLAMQRAVAGLHIAPEYVLIDGNRCPKLPMPAMAVVKGDSRVPEISAASILAKVTRDAEMAALDIVFPQYGFAQHKGYPTAFHLEKLAEHGATEHHRRSFGPVKRALGLAS",
,binds,"^His-SUMORnhA (enzyme, E. coli, UniProt P0A7Y4 1-155, looked up, fluorescently labeled with the His-Tag Labeling Kit RED-tris-NTA) MLKQVEIFTDGSCLGNPGPGGYGAILRYRGREKTFSAGYTRTTNNRMELMAAIVALEALKEHCEVILSTDSQYVRQGITQWIHNWKKRGWKTADKKPVKNVDLWQRLDAALGQHQIKWEWVKGHAGHPENERCDELARAAAMNPTLEDTGYQVEV",
binds,,"^HisRnhA (enzyme, E. coli, UniProt P0A7Y4 1-155, looked up, fluorescently labeled with the His-Tag Labeling Kit RED-tris-NTA) MLKQVEIFTDGSCLGNPGPGGYGAILRYRGREKTFSAGYTRTTNNRMELMAAIVALEALKEHCEVILSTDSQYVRQGITQWIHNWKKRGWKTADKKPVKNVDLWQRLDAALGQHQIKWEWVKGHAGHPENERCDELARAAAMNPTLEDTGYQVEV",
